# From US20250084372A1, “IN VITRO DERIVATION OF GONADAL SOMATIC CELLS” (Conception Bisosciences, Inc., priority 2020, published 2025)
# Legend:
# Assay type in all cases: cell-based, human
# [1] = test system: ovarian somatic cells (OSCs); assay: OSC induction with different FGF family members, marker expression; conditions: 10 ng/mL FGF in granulosa double medium
# Protocol: Fibroblast growth factors (FGFs) are a large family of proteins that are important for signaling events in a wide variety of processes. […] Briefly, gonadal cells were induced in granulosa doublemedium comprising different FGFs, and the expression of bipotential gonadal markers as well as that of granulosa markers were measured in the resulting cells.
# The replated cells from the second intermediate population were incubated in the granulosa double medium (also referred to as gonadal induction medium or OSC induction medium) according to Table 18, with the same concentration of either FGF2, 9, 10, 16, 17, 18 or 19. The expression of bipotential gonadal markers (WT1, LHX9, GADD45G and GATA4) as well as granulosa markers (FOXL2, NR1H4 and KITLG) were measured in the resulting cells.
# [2] = test system: ovarian somatic cells (OSCs); assay: Concentration titration of BMP4, follistatin and FGF2 in OSC induction, qPCR for GATA4 and FOXL2
# Protocol: Various concentration titrations of BMP4, Follistatin and FGF were tested in OSC induction, and the resulting cells were examined for expression of bipotential gonadal markers as well as that of granulosa markers.
# The OSCs were induced based on the protocols described in Example 6, but with various concentrations of BMP4. Follistatin and FGF tested.
# The OSC induction conditions were first tested by varying the BMP4 concentration. […] The gene expression of resulting cells was tested by qPCR for bi-potential gonadal cell markers (GATA4) as well as for granulosa cell markers (FOXL2) (FIGS. 12A and 12B respectively). Expression of GATA4 increased with higher BMP4 concentration, and FOXL2 expression appeared to peak at 10 ng/ml of BMP4 under the conditions tested.
# Four different concentrations of follistatin were then tested in OSC induction, with the concentration of BMP4 kept constant at 20 ng/ml as previously described. The gene expression of resulting cells was tested by qPCR for bi-potential gonadal cell markers (GATA4) as well as for granulosa cell markers (FOXL2) (FIGS. 12C and 12D respectively). […] The generation of mature OSCs were also examined by FOXL2 expression. […] In subsequent experiments, OSC induction in the absence or at lower concentrations of follistatin was further explored.
# Five different concentrations of FGF2 were then tested in OSC induction, with the concentration of BMP4 kept constant at 20 ng/mL and follistatin removed (Ong/mL). The gene expression of resulting cells were tested by qPCR for bi-potential gonadal cells (GATA4) as well as for granulosa cells (FOXL2) (FIGS. 12E and 12F respectively). As shown by FIGS. 12E and 12F, both GATA4 expression and FOXL2 expression reached saturation at 20 ng/ml of FGF2.
# [3] = test system: ovarian somatic cells (OSCs); assay: OSC induction with different BMP isoforms, marker qPCR; conditions: 20 ng/mL BMP in granulosa double medium
# Protocol: Gonadal somatic cells were induced in granulosa double medium comprising different BMP isoforms, and the expression of bipotential gonadal markers as well as that of granulosa markers were measured in the resulting cells.
# The expression of bipotential gonadal markers (WT1, LHX9, GADD45G and GATA4) as well as granulosa markers (FOXL2, NR1H4 and KITLG) were measured by qPCR in the resulting cells.
molecule,measurement,setting,value
"FGF17: fibroblast growth factor family member (protein, UniProt O60258 23-216, looked up) Fibroblast growth factor 17: TQGENHPSPNFNQYVRDQGAMTDQLSRRQIREYQLYSRTSGKHVQVTGRRISATAEDGNKFAKLIVETDTFGSRVRIKGAESEKYICMNKRGKLIGKPSGKSKDCVFTEIVLENNYTAFQNARHEGWFMAFTRQGRPRQASRSRQNQREAHFIKRLYQGQLPFPNHAEKQKQFEFVGSAPTRRTKRTRRPQPLT","expression of bipotential gonadal markers (WT1, LHX9, GADD45G, GATA4) compared to FGF2",[1],comparable or higher
same,"expression of granulosa markers (FOXL2, NR1H4, KITLG) compared to corresponding medium",[1],comparable
"follistatin: protein component of gonadal induction medium (protein, UniProt P19883 30-344, looked up) Follistatin: GNCWLRQAKNGRCQVLYKTELSKEECCSTGRLSTSWTEEDVNDNTLFKWMIFNGGAPNCIPCKETCENVDCGPGKKCRMNKKNKPRCVCAPDCSNITWKGPVCGLDGKTYRNECALLKARCKEQPELEVQYQGRCKKTCRDVFCPGSSTCVVDQTNNAYCVTCNRICPEPASSEQYLCGNDGVTYSSACHLRKATCLLGRSIGLAYEGKCIKAKSCEDIQCTGGKKCLWDFKVGRGRCSLCDELCPDSKSDEPVCASDNATYASECAMKEAACSSGVLLEVKHSGSCNSISEDTEEEEEDEDQDYSFPISSILEW",GATA4 expression on removing follistatin altogether,"[2]; 0 ng/mL follistatin, BMP4 20 ng/ml",increase
same,FOXL2 expression,"[2]; 25 ng/ml follistatin, no further increase at higher concentrations",marginal increase
same,FOXL2 expression,"[2]; higher concentrations of follistatin, BMP4 20 ng/ml",marginal increase
"BMP7: BMP isoform in gonadal induction medium (protein, UniProt P18075 293-431, looked up) Bone morphogenetic protein 7: STGSKQRSQNRSKTPKNQEALRMANVAENSSSDQRQACKKHELYVSFRDLGWQDWIIAPEGYAAYYCEGECAFPLNSYMNATNHAIVQTLVHFINPETVPKPCCAPTQLNAISVLYFDDSSNVILKKYRNMVVRACGCH","expression of bipotential gonadal markers (WT1, LHX9, GADD45G, GATA4) compared to BMP4",[3],comparable or higher
same,"expression of granulosa markers (FOXL2, NR1H4, KITLG) compared to BMP4",[3],comparable or higher
"BMP15: BMP isoform in gonadal induction medium (protein, UniProt O95972 268-392, looked up) Bone morphogenetic protein 15: QADGISAEVTASSSKHSGPENNQCSLHPFQISFRQLGWDHWIIAPPFYTPNYCKGTCLRVLRDGLNSPNHAIIQNLINQLVDQSVPRPSCVPYKYVPISVLMIEANGSILYKEYEGMIAESCTCR","expression of bipotential gonadal markers (WT1, LHX9, GADD45G, GATA4) compared to BMP4",[3],comparable or higher
same,"expression of granulosa markers (FOXL2, NR1H4, KITLG) compared to BMP4",[3],comparable or higher
"FGF18: fibroblast growth factor family member (protein, UniProt O76093 28-207, looked up) Fibroblast growth factor 18: EENVDFRIHVENQTRARDDVSRKQLRLYQLYSRTSGKHIQVLGRRISARGEDGDKYAQLLVETDTFGSQVRIKGKETEFYLCMNRKGKLVGKPDGTSKECVFIEKVLENNYTALMSAKYSGWYVGFTKKGRPRKGPKTRENQQDVHFMKRYPKGQPELQKPFKYTTVTKRSRRIRPTHPA","expression of bipotential gonadal markers (WT1, LHX9, GADD45G, GATA4) compared to FGF2",[1],comparable or higher
same,"expression of granulosa markers (FOXL2, NR1H4, KITLG) compared to corresponding medium",[1],comparable
"BMP4: BMP isoform in gonadal induction medium (protein, UniProt P12644 293-408, looked up) Bone morphogenetic protein 4: SPKHHSQRARKKNKNCRRHSLYVDFSDVGWNDWIVAPPGYQAFYCHGDCPFPLADHLNSTNHAIVQTLVNSVNSSIPKACCVPTELSAISMLYLDEYDKVVLKNYQEMVVEGCGCR",BMP4 concentration at which FOXL2 expression peaks,[2]; OSC induction,10 ng/mL
same,concentration at which the BMP4 effect saturates for OSCs,[2]; OSC induction,20 ng/mL
same,expression of GATA4,[2]; higher BMP4 concentration,increased
"FGF10: fibroblast growth factor family member (protein, UniProt O15520 38-208, looked up) Fibroblast growth factor 10: QALGQDMVSPEATNSSSSSFSSPSSAGRHVRSYNHLQGDVRWRKLFSFTKYFLKIEKNGKVSGTKKENCPYSILEITSVEIGVVAVKAINSNYYLAMNKKGKLYGSKEFNNDCKLKERIEENGYNTYASFNWQHNGRQMYVALNGKGAPRRGQKTRRKNTSAHFLPMVVHS","expression of bipotential gonadal markers (WT1, LHX9, GADD45G, GATA4) compared to FGF2",[1],comparable or higher
same,"expression of granulosa markers (FOXL2, NR1H4, KITLG) compared to corresponding medium",[1],comparable
